Experimental data published in publication doi:10.1101/2023.01.06.522972.
pKd: −log10 of the molar value.

Biological target: Leishmania major actin (Leishmania major) (UniProt P45520)
Assay: ITC

Sequence of Leishmania major actin (Leishmania major) (P45520 2-376): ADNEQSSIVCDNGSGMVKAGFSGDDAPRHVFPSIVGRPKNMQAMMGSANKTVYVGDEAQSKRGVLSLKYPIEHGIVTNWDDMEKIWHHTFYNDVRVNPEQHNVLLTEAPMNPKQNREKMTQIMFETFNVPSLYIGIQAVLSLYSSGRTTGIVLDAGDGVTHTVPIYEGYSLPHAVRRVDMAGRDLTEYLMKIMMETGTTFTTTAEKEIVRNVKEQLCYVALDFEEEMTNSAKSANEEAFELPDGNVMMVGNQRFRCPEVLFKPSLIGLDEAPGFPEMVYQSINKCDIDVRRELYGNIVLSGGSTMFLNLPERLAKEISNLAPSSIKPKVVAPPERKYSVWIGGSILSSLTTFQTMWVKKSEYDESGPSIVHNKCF

Substance | pKd
LmProfilin-K68A (natural protein) | 5.22
LmProfilin-Y6A (natural protein) | 7.10
